Test [1] deals with T1, mFc-hNKG2D (human, UniProt P26718 73-216).
T1 construct: extracellular domain; Made in house (Dragonfly Tx); the order of tag and ECD follows the name mFc-hNKG2D; also called mFc-tagged human NKG2D; not shown: mouse Fc tag
T1 sequence (looked up): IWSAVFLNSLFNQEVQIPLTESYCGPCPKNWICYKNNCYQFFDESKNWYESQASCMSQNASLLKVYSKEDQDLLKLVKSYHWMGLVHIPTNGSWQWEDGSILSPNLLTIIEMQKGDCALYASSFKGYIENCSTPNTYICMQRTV
Briefly: SPR Biacore 8K 37 C; mFc-hNKG2D captured on anti-mFc chip, TriNKET as analyte; 1:1 kinetic fit; average of 4. A general note: SPR reads the build-up and loss of mass on a sensor chip optically.

The target of test [2] is T1, mFc-hNKG2D. The test can be described thus: SPR Biacore 8K 37 C; mFc-hNKG2D captured on anti-mFc chip, TriNKET as analyte; steady state fit; un-oxidized control.
Procedure: (§1) Association was monitored for 60 seconds and dissociation was monitored for 60 seconds. Surfaces were regenerated between cycles with three pulses of 10 mM glycine-HCl, pH 1.7 injected for 20 seconds at 100 μL/min. HBS-EP+ (1×) buffer was used throughout the experiment. Data were analyzed using Biacore 8K Insight evaluation software (GE Healthcare).
The target of test [3] is T1, mFc-hNKG2D. Briefly: SPR Biacore 8K 37 C; mFc-hNKG2D captured on anti-mFc chip, TriNKET as analyte; 1:1 kinetic fit; after 0.02% H2O2 24 h.
Procedure: as §1
Another test deals with T2, Human CLEC12A-His (human, UniProt Q5QGZ9 65-265).
T2 construct: Recombinant soluble protein made in house (Dragonfly Tx); The hCLEC12A spot of the HuProt array is written under this molecule as well; also called hCLEC12A-His; hCLEC12A; not shown: His tag
T2 sequence: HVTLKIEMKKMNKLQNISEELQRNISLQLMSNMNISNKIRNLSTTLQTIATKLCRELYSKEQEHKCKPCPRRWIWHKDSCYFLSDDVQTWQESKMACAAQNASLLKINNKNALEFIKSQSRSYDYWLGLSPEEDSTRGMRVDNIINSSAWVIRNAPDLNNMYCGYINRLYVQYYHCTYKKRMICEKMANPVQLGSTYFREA
Briefly: SPR Biacore 8K 37 C; TriNKET captured on anti-hFc chip, hCLEC12A-His as analyte; 1:1 fit; control sample, n=2.

A further test addresses T3, Human CD32a R131 (human, UniProt P12318 36-218, limits assumed, biotinylated).
T3 construct: Bought recombinant receptor; also called hFcγRIIa R131
T3 sequence (looked up): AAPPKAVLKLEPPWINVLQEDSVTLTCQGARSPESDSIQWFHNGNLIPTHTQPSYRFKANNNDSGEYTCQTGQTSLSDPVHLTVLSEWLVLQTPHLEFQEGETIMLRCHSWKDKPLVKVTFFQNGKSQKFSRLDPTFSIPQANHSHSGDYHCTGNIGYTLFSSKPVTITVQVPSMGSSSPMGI
The test can be described thus: SPR, steady state fit.

A further test deals with T4, Human CD32a H131 (human, UniProt P12318 36-218, limits assumed, biotinylated).
T4 construct: Bought recombinant receptor; also called hFcγRIIa H131
T4 sequence (looked up): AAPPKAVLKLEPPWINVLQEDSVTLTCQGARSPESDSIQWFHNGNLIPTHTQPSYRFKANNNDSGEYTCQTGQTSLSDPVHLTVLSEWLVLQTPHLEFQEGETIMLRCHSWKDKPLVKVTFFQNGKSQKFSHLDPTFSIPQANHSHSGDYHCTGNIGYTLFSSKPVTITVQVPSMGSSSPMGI
The test can be described thus: SPR, steady state fit.

The target of the next test is T5, recombinant human FcRn (human, UniProt P55899 24-297; P61769 21-119).
T5 construct: also called hFcRn
The test can be described thus: SPR 25C, pH 6.0, steady state, average; pH 6.0; average of four replicates.

Test [4] addresses T6, human CLEC12A expressed on cells (human, UniProt Q5QGZ9 1-265).
T6 construct: Transduced isogenic cells or endogenous expression on AML cells; also called RMA-hCLEC12A; Ba/F3-hCLEC12A
T6 sequence: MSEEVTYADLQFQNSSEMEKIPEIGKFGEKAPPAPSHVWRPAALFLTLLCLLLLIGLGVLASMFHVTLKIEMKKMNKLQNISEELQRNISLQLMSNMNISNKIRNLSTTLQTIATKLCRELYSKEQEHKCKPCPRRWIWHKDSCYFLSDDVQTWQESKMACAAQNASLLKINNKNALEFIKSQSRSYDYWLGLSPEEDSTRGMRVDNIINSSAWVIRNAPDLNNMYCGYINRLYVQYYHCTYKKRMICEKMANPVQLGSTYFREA
The test can be described thus: flow cytometry, hCLEC12A+ Ba/F3.

The target in test [5] is T7, recombinant human CD16a V158 (human, UniProt P08637 17-208, biotinylated).
T7 construct: also called FcγRIIIa V158; hCD16aV
The test can be described thus: SPR 25C, kinetic fit.

Test [6] addresses T8, recombinant human CLEC12A-His (human, UniProt Q5QGZ9 65-265).
T8 construct: also called hCLEC12A-His; hCLEC12A
T8 sequence: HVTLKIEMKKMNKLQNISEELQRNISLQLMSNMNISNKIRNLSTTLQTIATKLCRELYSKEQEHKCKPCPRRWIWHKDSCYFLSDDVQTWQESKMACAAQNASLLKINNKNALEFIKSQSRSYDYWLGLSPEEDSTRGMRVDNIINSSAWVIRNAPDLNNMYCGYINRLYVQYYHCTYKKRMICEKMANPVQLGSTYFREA
The test can be described thus: SPR, CLEC12A binding.

Where “and” joins values, the source holds several entries; their conditions need not be identical. Equal entries are not always repeated.

As a reminder, the koff is a measure of how fast the partners let go of each other. In general, kon refers to the second-order rate constant of association. By Kd is commonly meant the equilibrium constant for the complex coming apart.

T7 sequence (P08637 17-208 F176V limits assumed): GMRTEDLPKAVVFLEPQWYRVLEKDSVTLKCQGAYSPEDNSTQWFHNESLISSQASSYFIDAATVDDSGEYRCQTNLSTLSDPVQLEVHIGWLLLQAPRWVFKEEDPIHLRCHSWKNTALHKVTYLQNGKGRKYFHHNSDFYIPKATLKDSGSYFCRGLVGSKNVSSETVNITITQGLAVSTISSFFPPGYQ
T5 sequence (P55899 24-297 limits assumed, chain 1 of 2): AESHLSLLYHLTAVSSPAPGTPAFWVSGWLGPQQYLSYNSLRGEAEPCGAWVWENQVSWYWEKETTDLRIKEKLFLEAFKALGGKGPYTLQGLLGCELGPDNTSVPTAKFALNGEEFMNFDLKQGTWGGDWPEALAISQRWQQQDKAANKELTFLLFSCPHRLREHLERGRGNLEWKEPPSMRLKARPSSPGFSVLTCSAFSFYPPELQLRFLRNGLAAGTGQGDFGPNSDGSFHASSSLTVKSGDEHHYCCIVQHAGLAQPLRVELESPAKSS
T5 sequence (P61769 21-119 limits assumed, chain 2 of 2): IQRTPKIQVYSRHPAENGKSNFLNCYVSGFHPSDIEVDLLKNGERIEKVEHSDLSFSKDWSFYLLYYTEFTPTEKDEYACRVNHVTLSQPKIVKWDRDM

B1: F3'-1602 TriNKET (bispecific antibody, human IgG1, kappa)
chain: QLQLQESGPGLVKPSETLSLTCTVSGFSLTNYGLHWIRQPPGKCLEWIGVIWSGGKTDYNPSLKSRVTISKDTSKNQFSLKLSSVQAADTAVYYCAKYDYDDSLDYWGQGTLVTVSSGGGGSGGGGSGGGGSGGGGSDIQMTQSPSSLSASVGDRVTITCHASQNINFWLSWYQQKPGKAPKLLIYEASNLHTGVPSRFSGSGSGTRFTLTISSLQPEDIATYYCQQSHSYPLTFGCGTKLEIKGSDKTHTCPPCPAPELLGGPSVFLFPPKPKDTLMISRTPEVTCVVVDVSHEDPEVKFNWYVDGVEVHNAKTKPREEQYNSTYRVVSVLTVLHQDWLNGKEYKCKVSNKALPAPIEKTISKAKGQPREPRVYTLPPCRDELTKNQVSLTCLVKGFYPSDIAVEWESNGQPENNYKTTPPVLVSDGSFTLYSKLTVDKSRWQQGNVFSCSVMHEALHNHYTQKSLSLSPG
heavy: EVQLVESGGGLVKPGGSLRLSCAASGFTFSSYSMNWVRQAPGKGLEWVSSISSSSSYIYYADSVKGRFTISRDNAKNSLYLQMNSLRAEDTAVYYCARGAPIGAAAGWFDPWGQGTLVTVSSASTKGPSVFPLAPSSKSTSGGTAALGCLVKDYFPEPVTVSWNSGALTSGVHTFPAVLQSSGLYSLSSVVTVPSSSLGTQTYICNVNHKPSNTKVDKKVEPKSCDKTHTCPPCPAPELLGGPSVFLFPPKPKDTLMISRTPEVTCVVVDVSHEDPEVKFNWYVDGVEVHNAKTKPREEQYNSTYRVVSVLTVLHQDWLNGKEYKCKVSNKALPAPIEKTISKAKGQPREPQVCTLPPSRDELTENQVSLTCLVKGFYPSDIAVEWESNGQPENNYKTTPPVLDSDGSFFLYSWLTVDKSRWQQGNVFSCSVMHEALHNHYTQKSLSLSPG
light: DIQMTQSPSSVSASVGDRVTITCRASQGISSWLAWYQQKPGKAPKLLIYAASSLQSGVPSRFSGSGSGTDFTLTISSLQPEDFATYYCQQGVSFPRTFGGGTKVEIKRTVAAPSVFIFPPSDEQLKSGTASVVCLLNNFYPREAKVQWKVDNALQSGNSQESVTEQDSKDSTYSLSSTLTLSKADYEKHKVYACEVTHQGLSSPVTKSFNRGEC
notes: Trispecific F3' format: CLEC12A scFv-Fc paired with NKG2D Fab-Fc; Stressed and control samples of the stability studies are the same molecule; also called AB0237
Consider B1, for which the koff with mFc-hNKG2D [1] turned out to be 0.13 s⁻¹; in the test with mFc-hNKG2D [3], 0.107 s⁻¹; with Human CLEC12A-His, 0.000933 s⁻¹. For the same molecule, the figures for the kon in the test with mFc-hNKG2D [1], with mFc-hNKG2D [3] and with Human CLEC12A-His were 180000 M⁻¹ s⁻¹, 148000 M⁻¹ s⁻¹ and 779000 M⁻¹ s⁻¹, respectively. Also, the Kd in the test with mFc-hNKG2D [2] amounted to 759 nM; in the test with mFc-hNKG2D [3] it was 722 nM; with Human CLEC12A-His, 1.2 nM.

B2: AB0192 TriNKET (other)
chain: EVQLVESGGGVVQPGGSLRLSCAASGFTFNAFGMHWVRQAPGKCLEWVAFISSGSTSIYYANTVKGRFTISRDNSKNTLYLQMNSLRAEDTAVYYCARDGYPTGGAMDYWGQGTSVTVSSGGGGSGGGGSGGGGSGGGGSDIQMTQSPSSLSASVGDRVTITCKASQDIYNYLSWFQQKPGKAPKPLIYRANILVSGVPSRFSGSGSGQDYTFTISSLQPEDIATYYCLQFDAFPFTFGCGTKLEIKGSDKTHTCPPCPAPELLGGPSVFLFPPKPKDTLMISRTPEVTCVVVDVSHEDPEVKFNWYVDGVEVHNAKTKPREEQYNSTYRVVSVLTVLHQDWLNGKEYKCKVSNKALPAPIEKTISKAKGQPREPRVYTLPPCRDELTKNQVSLTCLVKGFYPSDIAVEWESNGQPENNYKTTPPVLVSDGSFTLYSKLTVDKSRWQQGNVFSCSVMHEALHNHYTQKSLSLSPG
heavy: EVQLVESGGGLVKPGGSLRLSCAASGFTFSSYSMNWVRQAPGKGLEWVSSISSSSSYIYYADSVKGRFTISRDNAKNSLYLQMNSLRAEDTAVYYCARGAPIGAAAGWFDPWGQGTLVTVSSASTKGPSVFPLAPSSKSTSGGTAALGCLVKDYFPEPVTVSWNSGALTSGVHTFPAVLQSSGLYSLSSVVTVPSSSLGTQTYICNVNHKPSNTKVDKKVEPKSCDKTHTCPPCPAPELLGGPSVFLFPPKPKDTLMISRTPEVTCVVVDVSHEDPEVKFNWYVDGVEVHNAKTKPREEQYNSTYRVVSVLTVLHQDWLNGKEYKCKVSNKALPAPIEKTISKAKGQPREPQVCTLPPSRDELTENQVSLTCLVKGFYPSDIAVEWESNGQPENNYKTTPPVLDSDGSFFLYSWLTVDKSRWQQGNVFSCSVMHEALHNHYTQKSLSLSPG
light: DIQMTQSPSSVSASVGDRVTITCRASQGISSWLAWYQQKPGKAPKLLIYAASSLQSGVPSRFSGSGSGTDFTLTISSLQPEDFATYYCQQGVSFPRTFGGGTKVEIKRTVAAPSVFIFPPSDEQLKSGTASVVCLLNNFYPREAKVQWKVDNALQSGNSQESVTEQDSKDSTYSLSSTLTLSKADYEKHKVYACEVTHQGLSSPVTKSFNRGEC
notes: the condition stands under assay; also called AB0192 Lot AB0192-005
As for B2, the Kd with Human CD32a R131 is 1380 nM and 1290 nM and 1800 nM and 1130 nM; in the test with Human CD32a H131, 1040 nM and 921 nM and 1070 nM and 1020 nM.

B3: F3'-1602 TriNKET (other)
chain: QLQLQESGPGLVKPSETLSLTCTVSGFSLTNYGLHWIRQPPGKCLEWIGVIWSGGKTDYNPSLKSRVTISKDTSKNQFSLKLSSVQAADTAVYYCAKYDYDDSLDYWGQGTLVTVSSGGGGSGGGGSGGGGSGGGGSDIQMTQSPSSLSASVGDRVTITCHASQNINFWLSWYQQKPGKAPKLLIYEASNLHTGVPSRFSGSGSGTRFTLTISSLQPEDIATYYCQQSHSYPLTFGCGTKLEIKGSDKTHTCPPCPAPELLGGPSVFLFPPKPKDTLMISRTPEVTCVVVDVSHEDPEVKFNWYVDGVEVHNAKTKPREEQYNSTYRVVSVLTVLHQDWLNGKEYKCKVSNKALPAPIEKTISKAKGQPREPRVYTLPPCRDELTKNQVSLTCLVKGFYPSDIAVEWESNGQPENNYKTTPPVLVSDGSFTLYSKLTVDKSRWQQGNVFSCSVMHEALHNHYTQKSLSLSPG
heavy: EVQLVESGGGLVKPGGSLRLSCAASGFTFSSYSMNWVRQAPGKGLEWVSSISSSSSYIYYADSVKGRFTISRDNAKNSLYLQMNSLRAEDTAVYYCARGAPIGAAAGWFDPWGQGTLVTVSSASTKGPSVFPLAPSSKSTSGGTAALGCLVKDYFPEPVTVSWNSGALTSGVHTFPAVLQSSGLYSLSSVVTVPSSSLGTQTYICNVNHKPSNTKVDKKVEPKSCDKTHTCPPCPAPELLGGPSVFLFPPKPKDTLMISRTPEVTCVVVDVSHEDPEVKFNWYVDGVEVHNAKTKPREEQYNSTYRVVSVLTVLHQDWLNGKEYKCKVSNKALPAPIEKTISKAKGQPREPQVCTLPPSRDELTENQVSLTCLVKGFYPSDIAVEWESNGQPENNYKTTPPVLDSDGSFFLYSWLTVDKSRWQQGNVFSCSVMHEALHNHYTQKSLSLSPG
light: DIQMTQSPSSVSASVGDRVTITCRASQGISSWLAWYQQKPGKAPKLLIYAASSLQSGVPSRFSGSGSGTDFTLTISSLQPEDFATYYCQQGVSFPRTFGGGTKVEIKRTVAAPSVFIFPPSDEQLKSGTASVVCLLNNFYPREAKVQWKVDNALQSGNSQESVTEQDSKDSTYSLSSTLTLSKADYEKHKVYACEVTHQGLSSPVTKSFNRGEC
notes: CLEC12A scFv-Fc, NKG2D A49MI Fab-Fc, human IgG1 Fc; also called AB0237
Regarding B3, the Kd with recombinant human FcRn was 1400 nM; in test [5] it was 234 nM and 235 nM and 243 nM and 241 nM; in test [6] it was 0.6 nM. Also, the “fold lower EC50 than F3'-1295” value in test [4] was approximately 2 fold. Further, in test [5], the koff is 0.022 s⁻¹ and 0.023 s⁻¹. Further, in test [5], the kon is 96000 M⁻¹ s⁻¹ and 95000 M⁻¹ s⁻¹ and 93000 M⁻¹ s⁻¹.

The values above are taken from US20220119534A1 (DRAGONFLY THERAPEUTICS, published 2022).
